Reference: US20030165506A1 (VLAAMS INTERUNIVERSITAIR INSTITUUT VOOR BIOTECHNOLOGIE VZW, published 2003)

T1: β-catenin prey fusion of plasmid pGAD424-βctn (UniProt P35222 14-172)
T1 sequence (looked up): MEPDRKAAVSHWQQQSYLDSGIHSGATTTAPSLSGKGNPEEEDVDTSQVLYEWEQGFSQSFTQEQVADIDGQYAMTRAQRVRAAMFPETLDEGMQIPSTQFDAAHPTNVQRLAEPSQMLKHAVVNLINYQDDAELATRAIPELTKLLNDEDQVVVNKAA

B1: human αT-catenin fused to the LexA binding domain, bait plasmid pLexMG-ATCTN(179-2860) (other)
chain: MKALTARQQEVFDLIRDHISQTGMPPTRAEIAQRLGFRSPNAAEEHLKALARKGVIEIVSGASRGIRLLQEEEEGLPLVGRVAAGEPLLAQQHIEGHYQVDPSLFKPNADFLLRVSGMSMKDIGIMDGDLLAVHKTQDVRNGQVVVARIDDEVTVKRLKKQGNKVELLPENSEFKPIVVDLRQQSFTIEGLAVGVIRNGDWLSAETPITLNIDPQDLQVQTFTVEKLLEPLIIQVTTLVNCPQNPSSRKKGRSKRASVLLASVEEATWNLLDKGEKIAQEATVLKDELTASLEEVRKESEALKVSAERFTDDPCFLPKREAVVQAARALLAAVTRLLILADMIDVMCLLQHVSAFQRTFETLKNVANKSDLQKTYQKLGKELENLDYLAFKRQQDLKSPNQRDEIAGARASLKENSPLLHSICSACLEHSDVASLKASKDTVCEEIQNALNVISNASQGIQNMTTPPEPQAATLGSALDELENLIVLNPLTVTEEEIRPSLEKRLEAIISGAALLADSSCTRDLHRERIIAECNAIRQALQDLLSEYMNNAGKKERSNTLNIALDNMCKKTRDLRRQLRKAIIDHVSDSFLDTTVPLLVLIEAAKNGREKEIKEYAAIFHEHTSRLVEVANLACSMSTNEDGIKIVKIAANHLETLCPQIINAALALAARPKSQAVKNTMEMYKRTWENHIHVLTEAVDDITSIDDFLAVSESHILEDVNKCIIALRDQDADNLDRAAGAIRGRAARVAHIVTGEMDSYEPGAYTEGVMRNVNFLTSTVIPEFVTQVNVALEALSKSSLNVLDDNQFVDISKKIYDTIHDIRCSVMMIRTPEELEDVSDLEEEHEVRSHTSIQTEGKTDRAKMTQLPEAEKEKIAEQVADFKKVKSKLDAEIEIWDDTSNDIIVLAKNMCMIMMEMTDFTRGKGPLKHTTDVIYAAKMISESGSRMDVLARQIANQCPDPSCKQDLLAYLEQIKFYSHQLKICSQVKAEIQNLGGELIMSALDSVTSLIQAAKNLMNAVVQTVKMSYIASTKIIRIQSPAGPRHPVVMWRMKAPAKKPLIKREKPEETCAAVRRGSAKKKIHPLQVMSEFRGRQIY
B2: human αT-catenin fused to the GAL4 binding domain, bait plasmid pGBKT7-ATCTN(179-3024) (other, not shown: large carriers)
chain: SAETPITLNIDPQDLQVQTFTVEKLLEPLIIQVTTLVNCPQNPSSRKKGRSKRASVLLASVEEATWNLLDKGEKIAQEATVLKDELTASLEEVRKESEALKVSAERFTDDPCFLPKREAVVQAARALLAAVTRLLILADMIDVMCLLQHVSAFQRTFETLKNVANKSDLQKTYQKLGKELENLDYLAFKRQQDLKSPNQRDEIAGARASLKENSPLLHSICSACLEHSDVASLKASKDTVCEEIQNALNVISNASQGIQNMTTPPEPQAATLGSALDELENLIVLNPLTVTEEEIRPSLEKRLEAIISGAALLADSSCTRDLHRERIIAECNAIRQALQDLLSEYMNNAGKKERSNTLNIALDNMCKKTRDLRRQLRKAIIDHVSDSFLDTTVPLLVLIEAAKNGREKEIKEYAAIFHEHTSRLVEVANLACSMSTNEDGIKIVKIAANHLETLCPQIINAALALAARPKSQAVKNTMEMYKRTWENHIHVLTEAVDDITSIDDFLAVSESHILEDVNKCIIALRDQDADNLDRAAGAIRGRAARVAHIVTGEMDSYEPGAYTEGVMRNVNFLTSTVIPEFVTQVNVALEALSKSSLNVLDDNQFVDISKKIYDTIHDIRCSVMMIRTPEELEDVSDLEEEHEVRSHTSIQTEGKTDRAKMTQLPEAEKEKIAEQVADFKKVKSKLDAEIEIWDDTSNDIIVLAKNMCMIMMEMTDFTRGKGPLKHTTDVIYAAKMISESGSRMDVLARQIANQCPDPSCKQDLLAYLEQIKFYSHQLKICSQVKAEIQNLGGELIMSALDSVTSLIQAAKNLMNAVVQTVKMSYIASTKIIRIQSPAGPRHPVVMWRMKAPAKKPLIKREKPEETCAAVRRGSAKKKIHPLQVMSEFRGRQIY
B3: amino terminal part of β-catenin, prey fusion of plasmid pGAD424-ATβctn (other, UniProt P35222 14-172, looked up)
chain: T1 sequence (looked up)
notes: domain: amino terminal fragment 239-717; also called amino terminal fragment 239-717 of β-catenin; not shown: fusion partner encoded by the prey vector pGAD424 (Clontech)
B4: nearly full-length human plakoglobin, prey fusion of plasmid pGAD424-Plakoglobin(227-2340) (other, UniProt P14923 37-740, looked up)
chain: VSSKGIMEEDEACGRQYTLKKTTTYTQGVPPSQGDLEYQMSTTARAKRVREAMCPGVSGEDSSLLLATQVEGQATNLQRLAEPSQLLKSAIVHLINYQDDAELATRALPELTKLLNDEDPVVVTKAAMIVNQLSKKEASRRALMGSPQLVAAVVRTMQNTSDLDTARCTTSILHNLSHHREGLLAIFKSGGIPALVRMLSSPVESVLFYAITTLHNLLLYQEGAKMAVRLADGLQKMVPLLNKNNPKFLAITTDCLQLLAYGNQESKLIILANGGPQALVQIMRNYSYEKLLWTTSRVLKVLSVCPSNKPAIVEAGGMQALGKHLTSNSPRLVQNCLWTLRNLSDVATKQEGLESVLKILVNQLSVDDVNVLTCATGTLSNLTCNNSKNKTLVTQNSGVEALIHAILRAGDKDDITEPAVCALRHLTSRHPEAEMAQNSVRLNYGIPAIVKLLNQPNQWPLVKATIGLIRNLALCPANHAPLQEAAVIPRLVQLLVKAHQDAQRHVAAGTQQPYTDGVRMEEIVEGCTGALHILARDPMNRMEIFRLNTIPLFVQLLYSSVENIQRVAAGVLCELAQDKEAADAIDAEGASAPLMELLHSRNEGTATYAAAVLFRISEDKNPDYRKRVSVELTNSLFKHDPAAWEAAQSMIPINEPYGDDMDATYRPMYSSDVPLDPLEMHMDMDGDYPIDTYSDGLRPPYPTA
notes: domain: nearly full-length plakoglobin; not shown: fusion partner encoded by the prey vector pGAD424 (Clontech)

Tests used:
[1] = target: T1, β-catenin prey fusion of plasmid …; assay: cell-based or functional assay
[2] = target: B3; assay: cell-based or functional assay
[3] = target: T2, human α-catulin fused to the GAL4 DNA binding domain, bait plasmid pGBT9-αctl(50-2264) (human, UniProt P04386 1-147; Q9UBT7 1-734); assay: yeast two-hybrid, cotransformation of bait and prey, X-GAL staining (FIG. 7A)
T2 construct: Limits are printed only as cDNA positions (50-2264); also called α-catulin bait fusion
From the text: (§1) The yeast strain Y190 (Matchmaker, Clontech, CA), which contains GAL4 promoter driven His and β-galactosidase reporters, was used for cotransformation of pGBT9 bait and pGAD424 prey plasmids, comprising the cloned inserts of interest.

[4] = target: B2; assay: yeast two-hybrid, Y190 strain, CPRG quantification (FIG. 7B)
Method: as §1
To assay the strength of interaction between α-catenins and β-catenin, β-galactosidase activity was assayed using chlorophenol red-β-D-galactopyranoside (CPRG, Boehringer Mannheim, Del.) as a substrate, according to the provided protocol (Clontech Yeast Protocols Handbook).

[5] = target: T3, human αT-catenin fused to the GAL4 binding domain, bait plasmid pGBT9-ATCTN(179-2860) (human, UniProt P04386 1-147 (Saccharomyces cerevisiae entry)); assay: yeast two-hybrid, X-GAL staining of cotransformants
T3 construct: also called αT-catenin bait fusion; hαT-catenin
Method: (§2) (A) Introduction in the two-hybrid system by cotransformation of the respective fusion constructs. […] (B) Quantification of interaction strength between β-catenin and either αE- or αT-catenin in the yeast two-hybrid system. β-Galactosidase activity was measured using CPRG as a substrate.

[6] = target: T4, human αE-catenin fused to the GAL4 DNA binding domain, bait plasmid pGBT9-αECTN (human, UniProt P04386 1-147; P35221 2-906); assay: as above
T4 construct: no residue limits are printed; also called αE-catenin bait fusion
Method: as §2

[7] = target: T3, human αT-catenin fused to the GAL4 …; assay: yeast two-hybrid, X-GAL staining of cotransformants (FIG. 7A)
From the text: as §1

Binder: B1
- β-Galactosidase activity measured using CPRG as a substrate, yeast two-hybrid, L40 yeast strain [1]: ~4 fold against αE-catenin/β-catenin (pLexMG-αEctn plus pGAD424-βctn)

Binder: B2
- β-Galactosidase activity measured using CPRG as a substrate, yeast two-hybrid, Y190 yeast strain [2]: ~4 fold against αE-catenin/β-catenin (pGBT9-αEctn plus pGAD424-ATβctn)

Binder: B3
- binding result [3]: no binding
- binding result [4]: binds
- binding result [5]: binds
- binding result [6]: binds

Binder: B4
- binding result [7]: binds
